Patent publication US20220177581A1 (Memorial Sloan Kettering, published 2022)
Where a chain is given by its changes, count along the chain named. One block for each binder: values may come before it.

Target: T1, CD22 (UniProtKB-P20273) on CD22(+) cells (human, UniProt P20273 20-847)
T1 construct: Endogenous CD22 on the NALM6 and Raji cell lines; also called SIGLEC-2; BL-CAM
T1 sequence: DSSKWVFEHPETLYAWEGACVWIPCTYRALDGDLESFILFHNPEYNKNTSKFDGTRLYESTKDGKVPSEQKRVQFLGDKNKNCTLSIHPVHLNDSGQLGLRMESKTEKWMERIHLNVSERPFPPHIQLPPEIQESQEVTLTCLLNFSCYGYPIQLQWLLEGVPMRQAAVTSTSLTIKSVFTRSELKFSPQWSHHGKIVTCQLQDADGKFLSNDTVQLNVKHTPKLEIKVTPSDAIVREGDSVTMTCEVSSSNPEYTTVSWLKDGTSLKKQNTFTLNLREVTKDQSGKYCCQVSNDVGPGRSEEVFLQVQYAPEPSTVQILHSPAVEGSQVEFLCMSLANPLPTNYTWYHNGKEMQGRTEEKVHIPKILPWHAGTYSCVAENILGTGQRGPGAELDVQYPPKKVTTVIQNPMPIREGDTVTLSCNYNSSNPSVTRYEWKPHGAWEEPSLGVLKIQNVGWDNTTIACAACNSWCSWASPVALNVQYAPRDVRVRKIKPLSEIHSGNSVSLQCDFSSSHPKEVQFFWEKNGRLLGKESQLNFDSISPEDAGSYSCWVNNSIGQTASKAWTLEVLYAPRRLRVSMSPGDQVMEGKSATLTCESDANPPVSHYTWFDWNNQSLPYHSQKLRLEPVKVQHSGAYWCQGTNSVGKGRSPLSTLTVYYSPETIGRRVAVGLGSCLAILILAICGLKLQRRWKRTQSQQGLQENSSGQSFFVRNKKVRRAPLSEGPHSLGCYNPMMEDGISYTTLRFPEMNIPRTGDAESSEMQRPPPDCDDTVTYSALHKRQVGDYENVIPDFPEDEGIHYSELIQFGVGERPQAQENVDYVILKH
Experiment: flow cytometry on CD22(+) NALM6 cells

MFI (FACS NALM6): 26.4
B1: humanized LL2 L1 + H1 (antibody, V domains shown)
VH: QVQLVESGAEVKKPGASVKMSCKASGYTFTSYWLHWIRQAPGQRLEWIGYINPRNDYTKYSQKFQGRATITADKSASTAYMELSSLRSEDTAVYYCARRDITTFYWGQGTTLTVSS
VL: DIVLTQSPDSLAVSAGERVTMNCKSSQSVLYSANHKNYLAWYQQKPGQPPKLLIYWASTRESGVPDRFSGSGSGTDFTLTISSVQAEDVAIYYCHQYLSSWTFGGGTKLEIK
notes: Human IgG1 frameworks

MFI (FACS NALM6): 28.1
B2: humanized LL2 L2 + H2 (antibody, V domains shown)
VH: B1 VH with V5Q, A68V, I70L, A72R
VL: B1 VL with A15L, P49S
notes: Human IgG1 frameworks

MFI (FACS NALM6): 34.3
B3: humanized LL2 L2 + H9 (antibody, V domains shown)
VH: B1 VH with E6Q, M20V, I37V, K59E, S61N, K63N, Q65K, G66D, A68V, K74T
VL: B1 VL with A15L, P49S
notes: Human IgG1 frameworks

MFI (FACS NALM6): 21.8
B4: humanized LL2 L1 + H7 (antibody, V domains shown)
VH: B1 VH with M20V, I37V, I48M, K59E, S61N, K63N, Q65K, G66D, A72R, K74T
VL: B1 VL
notes: Human IgG1 frameworks

MFI (FACS NALM6): 23.3
B5: humanized LL2 L1 + H8 (antibody, V domains shown)
VH: B1 VH with M20V, I48M, K59E, S61N, K63N, Q65K, G66D, A68V, A72R, K74T
VL: B1 VL
notes: Human IgG1 frameworks

MFI (FACS NALM6): 26.7
B6: humanized LL2 L2 + H8 (antibody, V domains shown)
VH: B1 VH with M20V, I48M, K59E, S61N, K63N, Q65K, G66D, A68V, A72R, K74T
VL: B1 VL with A15L, P49S
notes: Human IgG1 frameworks

MFI (FACS NALM6): 36.3
B7: humanized LL2 L2 + H11 (antibody, V domains shown)
VH: B1 VH with E6Q, I37V, I48M, K59E, S61N, K63N, Q65K, G66D, K74T
VL: B1 VL with A15L, P49S
notes: Human IgG1 frameworks

MFI (FACS NALM6): 36.8
B8: humanized LL2 L2 + H3 (antibody, V domains shown)
VH: B1 VH with V5Q, E6Q, M20V, K59E, I70L, K74T
VL: B1 VL with A15L, P49S
notes: Human IgG1 frameworks

MFI (FACS NALM6): 37
B9: humanized LL2 L2 + H10 (antibody, V domains shown)
VH: QVQLVQSGAEVKKPGASVKVSCKASGYTFTSYWLHWVRQAPGQRLEWMGYINPRNDYTEYNQNFKDRVTLTADKSASTAYMELSSLRSEDTAVYYCARRDITTFYWGQGTTLTVSS
VL: B1 VL with A15L, P49S
notes: Human IgG1 frameworks

MFI (FACS NALM6): 40.4
B10: humanized LL2 L2 + H5 (antibody, V domains shown)
VH: B1 VH with V5Q, M20V, I37V, K59E, I70L, K74T
VL: B1 VL with A15L, P49S
notes: Human IgG1 frameworks

MFI (FACS NALM6): 31.7
B11: humanized LL2 L2 + H12 (antibody, V domains shown)
VH: B9 VH with V5Q, V20M, L70I, K74T
VL: B1 VL with A15L, P49S
notes: Human IgG1 frameworks

MFI (FACS NALM6): 35.9
B12: humanized LL2 L2 + H4 (antibody, V domains shown)
VH: B1 VH with V5Q, E6Q, I48M, K59E, S61N
VL: B1 VL with A15L, P49S
notes: Human IgG1 frameworks

MFI (FACS NALM6): 27.3
B13: humanized LL2 L2 + H7 (antibody, V domains shown)
VH: B9 VH with Q6E, V68A, L70I, A72R, K74T
VL: B1 VL with A15L, P49S
notes: Human IgG1 frameworks

MFI (FACS NALM6): 36.1
B14: humanized LL2 L2 + H6 (antibody, V domains shown)
VH: B9 VH with V5Q, V37I, L70I, A72R, K74T
VL: B1 VL with A15L, P49S
notes: Human IgG1 frameworks
